Here are results for six molecules from patent US20260234276A1 (DOMAIN THERAPEUTICS, published 2026).

Where “and” joins values, the source holds several entries; their conditions need not be identical. Equal entries are not always repeated.

In experiment [1] the target is T1, human CCR8 (human, UniProt P51685 1-355). The experiment can be described thus: cell-based or functional assay.
For experiment [2], the target named is T1, human CCR8. Briefly: cell-based or functional assay. This is another data set of the same source.
The target of experiment [3] is pm3 (human, sulfated tyrosine at Y17). Briefly: ELISA on coated peptide [cont.]. As for the experimental part: (§1) The specific binding properties of antibodies were evaluated by ELISA with coated CCR8 related peptides (500 ng/mL) in carbonate/bicarbonate buffer. Different peptides were used as described in Table 1 (see Example 1). Each anti-CCR8 mAb was tested at 1 μg/mL then diluted at 1/10. After an incubation at room temperature during 90 min, unbound mAbs were removed by washings. […] After washings, 3,3′,5,5′-tetramethylbenzidine (TMB) (Interchim, Montlugon, France) was added for 15 min. Then the optical density (OD) was determined by using a multiplate reader (Tecan, Lyon, France) and correlated with mAb reactivity on the panel of coated peptides.
Sequence of pm3 (human, sulfated tyrosine at Y17) (peptide, as listed by the source): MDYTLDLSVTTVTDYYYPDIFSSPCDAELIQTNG
(An ELISA detects its analyte on a solid surface through an enzyme-linked reagent.)

For experiment [4], the target named is pm5 (human, sulfated tyrosines at Y15 and Y17). Briefly: ELISA on coated peptide [cont.]. The procedure: as §1
Sequence of pm5 (human, sulfated tyrosines at Y15 and Y17) (peptide, as listed by the source): as above
The target in experiment [5] is pm6 (human, sulfated tyrosines at Y16 and Y17). The experiment can be described thus: ELISA on coated peptide [cont.]. The procedure:
as §1

Experiment [6] has as its target pm8 (human, sulfated tyrosines at Y15, Y16 and Y17). Briefly: ELISA on coated peptide [cont.]. As for the experimental part: as §1
The target of experiment [7] is T1, human CCR8. The experiment can be described thus: flow cytometry, hCCR8 transfected CHOK1 cells. The procedure: Briefly, 1·10⁵ cells per well in a 96 well plate were incubated with a dilution of unconjugated anti-CCR8 mAb at 10 μg/mL then diluted at 1/3.33, 4 dilution points (during 30 min at 4° C.). […] To determine EC50 value, 8 concentrations of anti-CCR8 mAb were tested. Unbound antibodies were washed away with PBS (Invitrogen by Thermofisher Scientific, Illkirch-Graffenstaden, France) supplemented by 2% Fetal Bovine Serum (Invitrogen by Thermofisher Scientific, Illkirch-Graffenstaden, France) and 2 mM EDTA (Invitrogen by Thermofisher Scientific, Illkirch-Graffenstaden, France). Subsequently, cells are centrifuged (5 min at 400 g) and bound antibody is detected with F(ab′)₂-Goat anti-Mouse IgG (H+L) Cross-Adsorbed Secondary Antibody, Alexa Fluor 488 (dilution 1/500) (Invitrogen by Thermofisher Scientific, Illkirch-Graffenstaden, France) or with F(ab′)₂-Goat anti-Human IgG Fc Secondary Antibody, PE (Invitrogen by Thermofisher Scientific, Illkirch-Graffenstaden, France) (dilution 1/1000) at 4° C. for 30 min. Detection reagent is washed away and cells are centrifuged (5 min at 400 g) and resuspended in 30 μL PBS. Bound detection antibody is quantified on a MacsQuant16 (Miltenyi, Gladbach, Germany) (B1 or B2 channel, 5000 events per acquisition).
(In general: A flow cytometer gives signals particle by particle.)

Sequence of pm8 (human, sulfated tyrosines at Y15, Y16 and Y17) (peptide, as listed by the source): as above
Sequence of pm6 (human, sulfated tyrosines at Y16 and Y17) (peptide, as listed by the source): as above

B1: 3-28 (antibody, V domains shown)
VH: EVQLQQSGPELLKPGTSVKISCTTSGYTFSDYTLHWVKQSHGKSLEWIGGITPKNGDTRYDPRFKDKATLTIDKSSSAAYMELRSLTSEDSAVYYCARVARFYGVSPYAMDYWGQGASVTVSS
VL: DVVMTQTPLSLPVSLGDQASISCRCTQSLLHSNGDTYLHWYLQKPGQSPKLLIYKVSNRFSGVPDRFSGSGSGTDFTLEITRVEAEDLGVYFCSQTTHVPYTFGGGTKLEIK
As for B1, in experiment [1], the “hCCL1 (100 nM) residual response, Protocol #2, mAb 0.08 µg/mL” value came to 79%; the “hCCL1 (100 nM) residual response, Protocol #2, mAb 0.4 µg/mL” value is 38%; the “hCCL1 (100 nM) residual response, Protocol #2, mAb 10 µg/mL” value worked out at 17%; the “hCCL1 (100 nM) residual response, Protocol #3, mAb 0.05 µg/mL” value came out at 102%. Also, in experiment [1], the “hCCL1 (100 nM) residual response, Protocol #3, mAb 0.5 µg/mL” value was found to be 64% and the “hCCL1 (100 nM) residual response, Protocol #3, mAb 5 µg/mL” value amounted to 47%. For the same molecule, in experiment [2], the “IC50 (Gi2 BRET, pH 6.5)” value is 0.044 µg/ml and 0.292 nM; the “IC50 (Gi2 BRET, pH 7.4)” value was 0.061 µg/ml and 0.405 nM. The binding result in experiment [3] was “binds”. The binding result in experiment [4] is “binds”. For the same molecule, the binding result in experiment [5] is given as “binds”. The binding result in experiment [6] is on record as “binds”. In addition, in experiment [7], the “% positive cells” value turned out to be 81.1% and the “MFI fold change to isotype ctrl” value was 10.7 fold.

B2: 3-11 (antibody, V domains shown)
VH: EVQLVESGGGLVQPKGSLKLSCAASGFTFNTYAMNWVRQAPGKGLEWVARIRSKSNNYATYYADSVKDRFTISRDDSQSMLYLQMNNLKTEDTAMYYCVRGREAYYRYDGGYYAMDYWGQGTSVTVSS
VL: DIVMTQAAPSVPVTPGESVSISCRSSKSLLHSNGNTYLYWFLQRPGQSPQLLIYRMSNLASGVPDRFSGSGSGTAFTLRISRVEAEDVGVYYCMQHLEYPFTFGSGTKLEIK
Take B2: in experiment [1], the “hCCL1 (100 nM) residual response, Protocol #2, mAb 0.08 µg/mL” value was 60%; the “hCCL1 (100 nM) residual response, Protocol #2, mAb 0.4 µg/mL” value was 36%; the “hCCL1 (100 nM) residual response, Protocol #2, mAb 10 µg/mL” value is 19%; the “hCCL1 (100 nM) residual response, Protocol #3, mAb 0.05 µg/mL” value is 74%. Moreover, in experiment [1], the “hCCL1 (100 nM) residual response, Protocol #3, mAb 0.5 µg/mL” value stood at 68% and the “hCCL1 (100 nM) residual response, Protocol #3, mAb 5 µg/mL” value worked out at 48%. Also, in experiment [2], the “IC50 (Gi2 BRET, pH 6.5)” value was 0.03 µg/ml and 0.198 nM; the “IC50 (Gi2 BRET, pH 7.4)” value is 0.031 µg/ml and 0.21 nM. Moreover, the binding result in experiment [3] is recorded as “binds”. In addition, the binding result in experiment [4] is “binds”. Moreover, the binding result in experiment [5] is reported as “binds”. Besides, the binding result in experiment [6] is given as “binds”. For the same molecule, in experiment [7], the “% positive cells” value was found to be 90.6% and the “MFI fold change to isotype ctrl” value turned out to be 22.7 fold.

B3: 3-30 (antibody, V domains shown)
VH: EVQLVESGGGLVQPKGSLRLSCAASGFTFNAYAMNWVRQAPGKGLEWVARIRSKSNNYATYYGDSVKDRFTISRDDSQTMLYLQMNNLKTEDTAMYYCVRGREAYYRYDGDYYAMDYWGQGTSVTVSS
VL: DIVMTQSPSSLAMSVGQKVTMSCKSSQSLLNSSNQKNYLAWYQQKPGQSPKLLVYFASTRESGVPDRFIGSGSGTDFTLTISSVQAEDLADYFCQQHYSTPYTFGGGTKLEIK
With B3, in experiment [1], the “hCCL1 (100 nM) residual response, Protocol #2, mAb 0.08 µg/mL” value turned out to be 70%; the “hCCL1 (100 nM) residual response, Protocol #2, mAb 0.4 µg/mL” value was determined as 44%; the “hCCL1 (100 nM) residual response, Protocol #2, mAb 10 µg/mL” value was determined as 51%; the “hCCL1 (100 nM) residual response, Protocol #3, mAb 0.05 µg/mL” value is 78%. For the same molecule, in experiment [1], the “hCCL1 (100 nM) residual response, Protocol #3, mAb 0.5 µg/mL” value worked out at 55% and the “hCCL1 (100 nM) residual response, Protocol #3, mAb 5 µg/mL” value was 43%. For the same molecule, in experiment [2], the “IC50 (Gi2 BRET, pH 6.5)” value is 0.053 µg/ml and 0.355 nM; the “IC50 (Gi2 BRET, pH 7.4)” value was 0.063 µg/ml and 0.421 nM. Also, the binding result in experiment [3] is “binds”. The binding result in experiment [4] is on record as “binds”. Further, in experiment [5], the binding result is “binds”. Besides, in experiment [6], the binding result is “binds”. In addition, in experiment [7], the “% positive cells” value amounted to 68.5% and the “MFI fold change to isotype ctrl” value stood at 5.12 fold.

B4: 3-32 (antibody, V domains shown)
VH: EVQLVESGGGLVQPKGSLKLSCAASGFTFNAYAMNWVRQAPGKGLEWLARIRSKSNNYATYYADSVKDRFTISRDDSQSMFYLQMNNLKSEDTAMYYCVRGREAYYRYDGGYYAMDYWGQGTSVTVSS
VL: EIVMTQAALSAPVTPGESVSMSCRSSKSLLHSNGNTYLYWFLQRPGQSPQLLIYRMSNLASGVPDRFSGSGSGTAFTLRISRVEAEDVGVYYCMQHLEYPFTFGSGTKLEIK
As to B4, in experiment [1], the “hCCL1 (100 nM) residual response, Protocol #2, mAb 0.08 µg/mL” value worked out at 88%; the “hCCL1 (100 nM) residual response, Protocol #2, mAb 0.4 µg/mL” value worked out at 57%; the “hCCL1 (100 nM) residual response, Protocol #2, mAb 10 µg/mL” value came to 46%; the “hCCL1 (100 nM) residual response, Protocol #3, mAb 0.05 µg/mL” value stood at 73%. Also, in experiment [1], the “hCCL1 (100 nM) residual response, Protocol #3, mAb 0.5 µg/mL” value was found to be 36% and the “hCCL1 (100 nM) residual response, Protocol #3, mAb 5 µg/mL” value turned out to be 36%. Also, in experiment [2], the “IC50 (Gi2 BRET, pH 6.5)” value was 0.071 µg/ml and 0.476 nM; the “IC50 (Gi2 BRET, pH 7.4)” value was 0.089 µg/ml and 0.596 nM. The binding result in experiment [3] is listed as “binds”. Moreover, the binding result in experiment [4] is recorded as “binds”. In addition, the binding result in experiment [5] was “binds”. Also, the binding result in experiment [6] was “binds”. In addition, in experiment [7], the “% positive cells” value worked out at 81.8% and the “MFI fold change to isotype ctrl” value was 16.2 fold.

B5: 3-14 (antibody, V domains shown)
VH: EVQLVESGGGLVQPTGSLRLSCAASGFTFNAYAMNWVRQAPGKGLEWVARIRSKSNDYATYYGDSVKDRFTISRDDSQSMLYLQMNNLKTEDTAMYYCVRGREAYYRYDGGYYAMDYWGQGTSVTVSS
VL: DIVMTQAAPSVSVTPGESVSISCTSSKSLLHSNGNTYLYWFLQRPGQSPQLLIYRMSNLASGVPDRFSGSGSGTAFTLRISRVEAEDVGVYYCMQHREYPFTFGSGTKLEIK
B5: in experiment [1], the “hCCL1 (100 nM) residual response, Protocol #2, mAb 0.08 µg/mL” value is 72%; the “hCCL1 (100 nM) residual response, Protocol #2, mAb 0.4 µg/mL” value was determined as 49%; the “hCCL1 (100 nM) residual response, Protocol #2, mAb 10 µg/mL” value amounted to 28%; the “hCCL1 (100 nM) residual response, Protocol #3, mAb 0.05 µg/mL” value was 75%. In addition, in experiment [1], the “hCCL1 (100 nM) residual response, Protocol #3, mAb 0.5 µg/mL” value was 36% and the “hCCL1 (100 nM) residual response, Protocol #3, mAb 5 µg/mL” value was 22%. Also, in experiment [2], the “IC50 (Gi2 BRET, pH 6.5)” value is 0.034 µg/ml and 0.225 nM; the “IC50 (Gi2 BRET, pH 7.4)” value is 0.065 µg/ml and 0.434 nM. The binding result in experiment [3] was “binds”. The binding result in experiment [4] is “binds”. In addition, the binding result in experiment [5] is given as “binds”. The binding result in experiment [6] is “binds”. For the same molecule, in experiment [7], the “% positive cells” value was determined as 66.8% and the “MFI fold change to isotype ctrl” value is 5.06 fold.

B6: 3-29 (antibody, V domains shown)
VH: QVHLVETGGGLVRPGNSLKLSCVTSGFTLSNYRMHWLRQPPGKRLEWIAVIKVKSDNYGANYAESVKGRFTISRDDAKSSVYLQMNRLREEDTATYYCSRPDGFSPFVYWGQGTLVTVSA
VL: DIKMTQSPSSMYASLGERVTITCKASQDINSYLSWFQQKPGKSPKTLIYRANRLVDGVPSRFSGSGSGQDYFLTISSLEYEDMGIYYCLQYGEFPPTFGAGTKLELK
B6: in experiment [1], the “hCCL1 (100 nM) residual response, Protocol #2, mAb 0.08 µg/mL” value was found to be 73%; the “hCCL1 (100 nM) residual response, Protocol #2, mAb 0.4 µg/mL” value came out at 51%; the “hCCL1 (100 nM) residual response, Protocol #2, mAb 10 µg/mL” value worked out at 24%; the “hCCL1 (100 nM) residual response, Protocol #3, mAb 0.05 µg/mL” value was determined as 69%. For the same molecule, in experiment [1], the “hCCL1 (100 nM) residual response, Protocol #3, mAb 0.5 µg/mL” value is 38% and the “hCCL1 (100 nM) residual response, Protocol #3, mAb 5 µg/mL” value was found to be 30%. For the same molecule, in experiment [2], the “IC50 (Gi2 BRET, pH 6.5)” value is 0.011 µg/ml and 0.073 nM; the “IC50 (Gi2 BRET, pH 7.4)” value is 0.007 µg/ml and 0.047 nM. In experiment [3], the binding result is reported as “binds”. Further, the binding result in experiment [4] was “binds”. Further, in experiment [5], the binding result is on record as “binds”. Moreover, the binding result in experiment [6] is “binds”. Moreover, in experiment [7], the “% positive cells” value came to 71.3% and the “MFI fold change to isotype ctrl” value turned out to be 6.26 fold.
